Data published in paper doi:10.1101/2022.03.08.483475 (bioRxiv, 2022).
Like-named read-outs stand apart in the source and are kept apart here.

B1: MukF (wild type) (natural protein, E. coli, UniProt P60293 1-440, looked up)
chain: MSEFSQTVPELVAWARKNDFSISLPVDRLSFLLAVATLNGERLDGEMSEGELVDAFRHVSDAFEQTSETIGVRANNAINDMVRQRLLNRFTSEQAEGNAIYRLTPLGIGITDYYIRQREFSTLRLSMQLSIVAGELKRAADAAEEGGDEFHWHRNVYAPLKYSVAEIFDSIDLTQRLMDEQQQQVKDDIAQLLNKDWRAAISSCELLLSETSGTLRELQDTLEAAGDKLQANLLRIQDATMTHDDLHFVDRLVFDLQSKLDRIISWGQQSIDLWIGYDRHVHKFIRTAIDMDKNRVFAQRLRQSVQTYFDEPWALTYANADRLLDMRDEEMALRDEEVTGELPEDLEYEEFNEIREQLAAIIEEQLAVYKTRQVPLDLGLVVREYLSQYPRARHFDVARIVIDQAVRLGVAQADFTGLPAKWQPINDYGAKVQAHVIDKY
B2: ParC subunit of topoisomerase IV (natural protein, E. coli, UniProt P0AFI2 1-752, looked up)
chain: MSDMAERLALHEFTENAYLNYSMYVIMDRALPFIGDGLKPVQRRIVYAMSELGLNASAKFKKSARTVGDVLGKYHPHGDSACYEAMVLMAQPFSYRYPLVDGQGNWGAPDDPKSFAAMRYTESRLSKYSELLLSELGQGTADWVPNFDGTLQEPKMLPARLPNILLNGTTGIAVGMATDIPPHNLREVAQAAIALIDQPKTTLDQLLDIVQGPDYPTEAEIITSRAEIRKIYENGRGSVRMRAVWKKEDGAVVISALPHQVSGARVLEQIAAQMRNKKLPMVDDLRDESDHENPTRLVIVPRSNRVDMDQVMNHLFATTDLEKSYRINLNMIGLDGRPAVKNLLEILSEWLVFRRDTVRRRLNYRLEKVLKRLHILEGLLVAFLNIDEVIEIIRNEDEPKPALMSRFGLTETQAEAILELKLRHLAKLEEMKIRGEQSELEKERDQLQGILASERKMNNLLKKELQADAQAYGDDRRSPLQEREEAKAMSEHDMLPSEPVTIVLSQMGWVRSAKGHDIDAPGLNYKAGDSFKAAVKGKSNQPVVFVDSTGRSYAIDPITLPSARGQGEPLTGKLTLPPGATVDHMLMESDDQKLLMASDAGYGFVCTFNDLVARNRAGKALITLPENAHVMPPVVIEDASDMLLAITQAGRMLMFPVSDLPQLSKGKGNKIINIPSAEAARGEDGLAQLYVLPPQSTLTIHVGKRKIKLRPEELQKVTGERGRRGTLMRGLQRIDRVEIDSPRRASSGDSEE
B3: acyl carrier protein (AcpP) found in MukB preparations (natural protein, E. coli, UniProt P0A6A8 1-78, looked up)
chain: MSTIEERVKKIIGEQLGVKQEEVTNNASFVEDLGADSLDTVELVMALEEEFDTEIPDEEAEKITTVQAAIDYINGHQA
B4: MukB (wild type) (natural protein, E. coli, UniProt P22523 1-1486, looked up)
chain: MIERGKFRSLTLINWNGFFARTFDLDELVTTLSGGNGAGKSTTMAAFVTALIPDLTLLHFRNTTEAGATSGSRDKGLHGKLKAGVCYSMLDTINSRHQRVVVGVRLQQVAGRDRKVDIKPFAIQGLPMSVQPTQLVTETLNERQARVLPLNELKDKLEAMEGVQFKQFNSITDYHSLMFDLGIIARRLRSASDRSKFYRLIEASLYGGISSAITRSLRDYLLPENSGVRKAFQDMEAALRENRMTLEAIRVTQSDRDLFKHLISEATNYVAADYMRHANERRVHLDKALEFRRELHTSRQQLAAEQYKHVDMARELAEHNGAEGDLEADYQAASDHLNLVQTALRQQEKIERYEADLDELQIRLEEQNEVVAEAIERQQENEARAEAAELEVDELKSQLADYQQALDVQQTRAIQYNQAIAALNRAKELCHLPDLTADCAAEWLETFQAKELEATEKMLSLEQKMSMAQTAHSQFEQAYQLVVAINGPLARNEAWDVARELLREGVDQRHLAEQVQPLRMRLSELEQRLREQQEAERLLADFCKRQGKNFDIDELEALHQELEARIASLSDSVSNAREERMALRQEQEQLQSRIQSLMQRAPVWLAAQNSLNQLSEQCGEEFTSSQDVTEYLQQLLEREREAIVERDEVGARKNAVDEEIERLSQPGGSEDQRLNALAERFGGVLLSEIYDDVSLEDAPYFSALYGPSRHAIVVPDLSQVTEHLEGLTDCPEDLYLIEGDPQSFDDSVFSVDELEKAVVVKIADRQWRYSRFPEVPLFGRAARESRIESLHAEREVLSERFATLSFDVQKTQRLHQAFSRFIGSHLAVAFESDPEAEIRQLNSRRVELERALSNHENDNQQQRIQFEQAKEGVTALNRILPRLNLLADDSLADRVDEIRERLDEAQEAARFVQQFGNQLAKLEPIVSVLQSDPEQFEQLKEDYAYSQQMQRDARQQAFALTEVVQRRAHFSYSDSAEMLSGNSDLNEKLRERLEQAEAERTRAREALRGHAAQLSQYNQVLASLKSSYDTKKELLNDLQRELQDIGVRADSGAEERARIRRDELHAQLSNNRSRRNQLEKALTFCEAEMDNLTRKLRKLERDYFEMREQVVTAKAGWCAVMRMVKDNGVERRLHRRELAYLSADDLRSMSDKALGALRLAVADNEHLRDVLRMSEDPKRPERKIQFFVAVYQHLRERIRQDIIRTDDPVEAIEQMEIELSRLTEELTSREQKLAISSRSVANIIRKTIQREQNRIRMLNQGLQNVSFGQVNSVRLNVNVRETHAMLLDVLSEQHEQHQDLFNSNRLTFSEALAKLYQRLNPQIDMGQRTPQTIGEELLDYRNYLEMEVEVNRGSDGWLRAESGALSTGEAIGTGMSILVMVVQSWEDESRRLRGKDISPCRLLFLDEAARLDARSIATLFELCERLQMQLIIAAPENISPEKGTTYKLVRKVFQNTEHVHVVGLRGFAPQLPETLPGTDEAPSQAS

Tests used:
MukB (wild type) [1] = target: B4; assay: cross-linking
MukB (wild type) [2] = target: B4; assay: cross-linking; remark: listed apart in the source
MukB (wild type) [3] = target: B4; assay: co-purification, SDS-PAGE with Coomassie staining
cross-linking = target: the molecule itself; assay: cross-linking

Binder: B1
binding result (MukB (wild type) [1]): binds

Binder: B2
binding result (MukB (wild type) [2]): binds

Binder: B3
stoichiometry N (MukB (wild type) [3]): 1 AcpP:MukB

Binder: B4
binding result (cross-linking): binds
